This note sets out measurements from article doi:10.1101/2021.02.13.431076.

This test concerns the target GOLD domain of human TMED1 (p24γ1), signal peptide-free (human) (UniProt Q13445). Kind of test: SEC. Background: SEC sorts molecules by how far they enter the pores of the column.

Consider “GOLD domain of human TMED1 (p24γ1), signal peptide-free (from UniProt Q13445 24-130) (domain or fragment)”, for which the stoichiometry N (usually the number of molecules, sites or subunits per partner or assembly) is 2.
